For one experiment, the system named is C8 colon tumor cells. Kind of experiment: C8 colon tumor xenograft, treatment of established tumors. The experiment is classed as in vivo, NOD/SCID mice. The conditions noted are these: C8 colon tumors ~210 mm^3 at start, 10 mg/kg i.p. twice a week. Here is the method:
Tumor cells from a patient sample (solid tumor biopsy or pleural effusion) that have been passaged as a xenograft in mice were prepared for repassaging into experimental animals. Tumor tissue was removed, cut up into small pieces, minced completely using sterile blades, and single cell suspensions obtained by enzymatic digestion and mechanical disruption. Dissociated tumor cells were then injected subcutaneously into the mammary fat pads, for breast tumors, or into the flank, for non-breast tumors, of NOD/SCID mice to elicit tumor growth. In certain embodiments, ESA+, CD44+, CD24−/low, Lin− tumorigenic tumor cells are isolated as described in detail above and injected.
In certain embodiments, freshly isolated C8 colon tumor cells (225 cells per animal) were implanted subcutaneously into NOD/SCID mice. Following tumor cell injection, animals were monitored for tumor growth. Tumors were allowed to grow for 48 days until they reached an average size of approximately 210 mm^3 and randomized into two groups (n=10 per group). The animals were treated with either control antibody or antibody that binds to the membrane proximal region of the extracellular domain of human Notch1, 52M51, (10 mg/kg) dosed i.p. twice a week. Tumor size was assessed on days 55, 57, and 62.

The target of experiment [1] is T1, Notch1 (Homo sapiens, UniProt P46531). The experiment is described as follows: Western blot of Notch1 ICD formation after DLL4 stimulation of Notch1-Hela cells. The experiment is classed as cell-based. The arrangement: expressed in transfected cells; host or cells: HeLa (Notch1-Hela). The conditions noted are these: DLL4-fc coated wells, five hours. How it is done:
Cleavage of Notch receptors by furin, ADAM, and gamma-secretase results in formation of the Notch intracellular domain (ICD) that then triggers downstream Notch signaling in the nucleus. In certain embodiments, the ability of Notch1 receptor antibodies to block ligand-mediated receptor activation was determined by Western blot analysis. Notch1-Hela cells were grown in suspension culture in 293-SMII media (Gibco). Cultured cells were transferred to 96-well plates in which select wells had been pre-coated with human DLL4-fc fusion protein ([…]) in DMEM plus 2% FBS and 1 μM MG132 (Calbiochem). Antibodies to generated against a membrane proximal region of the extracellular domain of human Notch1 were added to the cell culture medium, and cells were incubated at 37° C. for five hours. Wells were then aspirated and the cells resuspended in 2×SDS running buffer. Samples were sonicated at room temperature, and then subjected to SDS-PAGE and western blot analysis using an antibody specific for the cleaved Notch1 ICD according to the manufacturer's recommendations (Cell Signaling Technology).

Experiment [2] addresses T1, Notch1. The experiment is described as follows: ELISA of conditioned media from cotransfected HEK 293 cells for Notch1 binding activity. The conditions noted are these: candidate humanized chains cotransfected into HEK 293 cells. How it is done: The functionality of each candidate variant humanized heavy and light chain was tested by cotransfection into mammalian cells. Each of the nine candidate humanized 52M51 heavy chains described above was cotransfected into HEK 293 cells with the murine 52M51 light chain cDNA, and conditioned media was assayed by ELISA for Notch1 binding activity. […] This variant “52M51-H4” (SEQ ID NO:22) contains, in addition to murine CDRs, variation at 3 framework positions within the Vh framework, Kabat positions 20, 48, and 71 in comparison with an example human framework (e.g. IGHV1-24). The 52M51-H4 humanized heavy chain was then cotransfected into HEK293 cells with each of the eight candidate humanized light chains, and conditioned media was again assayed for antigen binding by ELISA. […] Variant 52M51-L3 contains, in addition to murine CDRs, variation at 1 framework position at Kabat position 49 in comparison to an example human framework (e.g., IGLV7-46). Two humanized variant antibodies, 52M51H4L3 and 52M51H4L4, were developed. 52M51H4L3, as encoded by DNA deposited with the ATCC, under the conditions of the Budapest Treaty on Oct. 15, 2008, and assigned designation number PTA-9549.
A general note: In an ELISA, binding on a coated surface is turned into a signal by an enzyme label.

Experiment [3] addresses T1, Notch1. The experiment is described as follows: hDLL4-fc-induced Notch reporter luciferase assay in Notch1-Hela cells. Conditions: plates coated with 200 ng/well hDLL4-fc, 48 hours after transfection. The arrangement: expressed in transfected cells; host or cells: HeLa (Notch1-Hela). The class given is cell-based. Here is the method: In certain embodiments, the ability of Notch1 receptor antibodies to block ligand-mediated Notch signaling was determined. In certain embodiments, HeLa cells engineered to overexpress Notch1 (Notch1-Hela) cultured in DMEM supplemented with antibiotics and 10% FCS were co-transfected with 1) pGL4 8×CBS firefly luciferase containing a Notch responsive promoter upstream of a firefly luciferase reporter gene to measure Notch signaling levels in response to DLL4 ligand; and 2) a Renilla luciferase reporter (Promega; Madison, Wis.) as an internal control for transfection efficiency. Transfected cells were added to cultures plates coated overnight with 200 ng/well of hDLL4-fc protein, and antibodies to Notch1 were then added to the cell culture medium. Forty-eight hours following transfection, luciferase levels were measured using a dual luciferase assay kit (Promega; Madison, Wis.) with firefly luciferase activity normalized to Renilla luciferase activity. The ability of antibodies to inhibit Notch1 pathway activation was thus determined.

“Also recorded” adds a separate entry of the source.

T1 sequence (P46531 19-2555): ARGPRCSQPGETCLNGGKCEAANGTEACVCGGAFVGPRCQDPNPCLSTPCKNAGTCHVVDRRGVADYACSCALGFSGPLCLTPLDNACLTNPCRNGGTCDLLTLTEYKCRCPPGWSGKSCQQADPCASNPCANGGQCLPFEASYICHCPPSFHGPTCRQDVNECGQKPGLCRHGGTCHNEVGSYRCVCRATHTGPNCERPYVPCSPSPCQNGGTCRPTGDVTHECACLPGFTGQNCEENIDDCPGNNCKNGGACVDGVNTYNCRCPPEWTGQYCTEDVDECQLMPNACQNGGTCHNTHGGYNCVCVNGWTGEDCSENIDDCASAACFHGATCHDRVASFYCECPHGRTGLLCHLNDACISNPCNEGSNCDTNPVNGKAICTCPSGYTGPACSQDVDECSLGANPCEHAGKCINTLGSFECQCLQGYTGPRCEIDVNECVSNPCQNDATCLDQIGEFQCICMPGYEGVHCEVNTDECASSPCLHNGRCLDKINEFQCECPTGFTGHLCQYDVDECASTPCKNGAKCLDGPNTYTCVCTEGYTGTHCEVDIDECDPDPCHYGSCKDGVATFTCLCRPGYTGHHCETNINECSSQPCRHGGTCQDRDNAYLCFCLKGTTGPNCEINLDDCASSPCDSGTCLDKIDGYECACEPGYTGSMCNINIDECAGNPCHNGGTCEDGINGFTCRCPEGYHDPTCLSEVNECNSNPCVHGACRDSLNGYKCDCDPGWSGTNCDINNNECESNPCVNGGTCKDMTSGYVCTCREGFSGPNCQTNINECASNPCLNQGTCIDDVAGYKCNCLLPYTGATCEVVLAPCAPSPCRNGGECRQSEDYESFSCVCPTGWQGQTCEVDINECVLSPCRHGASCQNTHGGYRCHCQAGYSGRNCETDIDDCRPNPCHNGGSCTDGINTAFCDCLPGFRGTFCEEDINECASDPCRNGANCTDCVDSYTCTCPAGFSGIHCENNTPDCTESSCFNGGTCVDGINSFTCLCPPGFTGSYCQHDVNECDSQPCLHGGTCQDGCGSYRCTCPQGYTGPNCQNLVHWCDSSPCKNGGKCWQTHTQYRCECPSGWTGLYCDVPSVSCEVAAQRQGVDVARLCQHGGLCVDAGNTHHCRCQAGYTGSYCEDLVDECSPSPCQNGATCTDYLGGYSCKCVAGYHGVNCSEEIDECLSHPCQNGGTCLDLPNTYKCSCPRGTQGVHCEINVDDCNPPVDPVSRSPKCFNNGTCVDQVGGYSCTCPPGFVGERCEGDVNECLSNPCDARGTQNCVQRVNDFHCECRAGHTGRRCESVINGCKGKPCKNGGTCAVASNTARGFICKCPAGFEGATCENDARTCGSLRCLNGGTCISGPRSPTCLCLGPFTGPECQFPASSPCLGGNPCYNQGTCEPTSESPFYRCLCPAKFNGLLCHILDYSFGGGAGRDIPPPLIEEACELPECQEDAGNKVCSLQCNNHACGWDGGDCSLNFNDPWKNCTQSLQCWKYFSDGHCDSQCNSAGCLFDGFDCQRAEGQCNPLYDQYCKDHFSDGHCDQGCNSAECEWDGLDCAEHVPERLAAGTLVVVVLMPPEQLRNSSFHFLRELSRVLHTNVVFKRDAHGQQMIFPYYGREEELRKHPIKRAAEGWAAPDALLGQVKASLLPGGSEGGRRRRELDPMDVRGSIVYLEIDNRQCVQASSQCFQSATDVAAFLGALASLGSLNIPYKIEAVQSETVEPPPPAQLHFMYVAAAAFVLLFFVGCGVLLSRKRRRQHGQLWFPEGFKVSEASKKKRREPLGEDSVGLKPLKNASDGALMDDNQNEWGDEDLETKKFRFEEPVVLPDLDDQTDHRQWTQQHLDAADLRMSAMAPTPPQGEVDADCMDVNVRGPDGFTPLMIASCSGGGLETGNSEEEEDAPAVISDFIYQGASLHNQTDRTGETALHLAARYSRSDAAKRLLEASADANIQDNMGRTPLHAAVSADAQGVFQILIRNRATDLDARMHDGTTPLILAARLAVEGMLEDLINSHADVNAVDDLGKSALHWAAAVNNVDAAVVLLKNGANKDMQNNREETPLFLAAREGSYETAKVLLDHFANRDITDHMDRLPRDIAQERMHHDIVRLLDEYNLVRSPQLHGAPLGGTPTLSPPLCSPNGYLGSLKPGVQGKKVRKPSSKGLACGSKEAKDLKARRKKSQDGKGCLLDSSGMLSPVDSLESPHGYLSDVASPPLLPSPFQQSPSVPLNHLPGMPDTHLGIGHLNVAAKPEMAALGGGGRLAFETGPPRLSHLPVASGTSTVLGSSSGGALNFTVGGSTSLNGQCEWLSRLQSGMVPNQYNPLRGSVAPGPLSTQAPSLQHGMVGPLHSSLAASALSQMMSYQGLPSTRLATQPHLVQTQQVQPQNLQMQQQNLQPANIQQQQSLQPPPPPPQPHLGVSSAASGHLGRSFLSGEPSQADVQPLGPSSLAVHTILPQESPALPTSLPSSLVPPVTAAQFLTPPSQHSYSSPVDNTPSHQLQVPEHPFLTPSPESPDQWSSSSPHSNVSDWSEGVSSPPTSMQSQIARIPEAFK

B1: 52M51: murine monoclonal antibody to membrane proximal region of human Notch1; hybridoma ATCC PTA-9405; heavy SEQ ID NO:10, light SEQ ID NO:4 (antibody)
heavy: MEWTWVFLFLLSVTAGVHSQVQLQQSGAELMKPGASVKISCKAAGYTMRGYWIEWIKQRPGHGLEWIGQILPGTGRTNYNEKFKGKATFTADTSSNTANMQLSSLTSEDSAVYYCARFDGNYGYYAMDYWGQGSSVTVSSAKTTPPSVYPLAPGSAAQTNSMVTLGCLVKGYFPEPVTVTWNSGSLSSGVHTFPAVLQSDLYTLSSSVTVPSSPRPSETVTCNVAHPASSTKVDKKIVPRDCGCKPCICTVPEVSSVFIFPPKPKDVLTITLTPKVTCVVVDISKDDPEVQFSWFVDDVEVHTAQTQPREEQFNSTFRSVSELPIMHQDWLNGKEFKCRVNSAAFPAPIEKTISKTKGRPKAPQVYTIPPPKEQMAKDKVSLTCMITDFFPEDITVEWQWNGQPAENYKNTQPIMNTNGSYFVYSKLNVQKSNWEAGNTFTCSVLHEGLHNHHTEKSLSHSPGK
light: MAWISLILSLLALSSGAISQAVVTQESALTTSPGETVTLTCRSSTGAVTTSNYANWVQEKPDHLFTGLIGGTNNRAPGVPARFSGSLIGDKAALTITGAQTEDEAIYFCALWYSNHWVFGGGTKLTVLGQPKSSPSVTLFPPSSEELETNKATLVCTITDFYPGVVTVDWKVDGTPVTQGMETTQPSKQSNNKYMASSYLTLTARAWERHSSYSCQVTHEGHTVEKSLSRADCS
modifications: Synthetic heavy chain of antibody 52M51; Synthetic light chain of antibody 52M51
Turning to B1, the “tumor growth compared to control antibody” value with C8 colon tumor cells was “statistically significant (p=0.0006) inhibition of tumor growth; also recorded: significantly (p=0.0006) inhibited tumor growth”. Besides, in the experiment with Notch1 [1], the “Notch1 ICD formation after ligand stimulation” value is recorded as “significantly inhibited the generation of ICD; also recorded: reduce ICD formation to background levels”.

B2: 52M51-H4: humanized 52M51 heavy chain variant (SEQ ID NO:22), tested with the murine 52M51 light chain (antibody)
heavy: QVQLVQSGAEVKKPGASVKISCKVSGYTLRGYWIEWVRQAPGKGLEWIGQILPGTGRTNYNEKFKGRVTMTADTSTDTAYMELSSLRSEDTAVYYCARFDGNYGYYAMDYWGQGTTVTVSSASTKGPSVFPLAPCSRSTSESTAALGCLVKDYFPEPVTVSWNSGALTSGVHTFPAVLQSSGLYSLSSVVTVPSSNFGTQTYTCNVDHKPSNTKVDKTVERKCCVECPPCPAPPVAGPSVFLFPPKPKDTLMISRTPEVTCVVVDVSHEDPEVQFNWYVDGVEVHNAKTKPREEQFNSTFRVVSVLTVVHQDWLNGKEYKCKVSNKGLPAPIEKTISKTKGQPREPQVYTLPPSREEMTKNQVSLTCLVKGFYPSDIAVEWESNGQPENNYKTTPPMLDSDGSFFLYSKLTVDKSRWQQGNVFSCSVMHEALHNHYTQKSLSLSPGK
light: QAVVTQESALTTSPGETVTLTCRSSTGAVTTSNYANWVQEKPDHLFTGLIGGTNNRAPGVPARFSGSLIGDKAALTITGAQTEDEAIYFCALWYSNHWVFGGGTKLTVLGQPKSSPSVTLFPPSSEELETNKATLVCTITDFYPGVVTVDWKVDGTPVTQGMETTQPSKQSNNKYMASSYLTLTARAWERHSSYSCQVTHEGHTVEKSLSRADCS
Take B2: the “Notch1 / antigen binding by ELISA” value with Notch1 [2] is “most robust binding”.

B3: 52M51H4L3: humanized variant of 52M51, heavy chain H4 and light chain L3; DNA deposited as ATCC PTA-9549 (antibody)
heavy: QVQLVQSGAEVKKPGASVKISCKVSGYTLRGYWIEWVRQAPGKGLEWIGQILPGTGRTNYNEKFKGRVTMTADTSTDTAYMELSSLRSEDTAVYYCARFDGNYGYYAMDYWGQGTTVTVSSASTKGPSVFPLAPCSRSTSESTAALGCLVKDYFPEPVTVSWNSGALTSGVHTFPAVLQSSGLYSLSSVVTVPSSNFGTQTYTCNVDHKPSNTKVDKTVERKCCVECPPCPAPPVAGPSVFLFPPKPKDTLMISRTPEVTCVVVDVSHEDPEVQFNWYVDGVEVHNAKTKPREEQFNSTFRVVSVLTVVHQDWLNGKEYKCKVSNKGLPAPIEKTISKTKGQPREPQVYTLPPSREEMTKNQVSLTCLVKGFYPSDIAVEWESNGQPENNYKTTPPMLDSDGSFFLYSKLTVDKSRWQQGNVFSCSVMHEALHNHYTQKSLSLSPGK
light: SGVDSQAVVTQEPSLTVSPGGTVTLTCRSSTGAVTTSNYANWFQQKPGQAPRTLIGGTNNRAPGVPARFSGSLLGGKAALTLSGAQPEDEAEYYCALWYSNHWVFGGGTKLTVLGQPKAAPSVTLFPPSSEELQANKATLVCLVSDFYPGAVTVAWKADGSPVKVGVETTKPSKQSNNKYAASSYLSLTPEQWKSHRSYSCRVTHEGSTVEKTVAPAECS
Take B3: the “Notch signaling (luciferase activity)” value in the experiment with Notch1 [3] is reported as “significantly inhibited Notch signaling”.
